Molecular target: N-terminal alkaline phosphatase-tagged RBP (AP-RBP fusion protein) (human, UniProt P02753 19-201)
Assay: AP-RBP binding to live COS-1 cells transfected with bovine STRA6, AP activity read-out
Protocol: The cells were then washed twice with PBS⁺ and fixed in fresh 2% formaldehyde in PBS⁺ at room temperature for 10 min. After 3 more PBS washes, the cells were heated in PBS for 1 h at 65° C. […] The reaction was stopped by washing cells twice with PBS containing 1 mM CaCl₂. The cells were then lysed in 200 μl of cold PBS containing 1% Triton X-100 and protease inhibitors per well. The cell lysates were centrifuged at 3,000 g at 4° C. for 5 min. The supernatants were removed and heated at 65° C. for 1 h. Twenty microliters of the heated lysate were mixed with 200 μl of pNPP (Sigma) and incubated at 37° C. for 1 h for the AP color reaction. The reactions were stopped by adding 50 μl 3 M NaOH and were transferred to a 96-well plate for reading in a microplate reader at 405 nm.

Kd: 59 nM
B1: bovine STRA6 (wild-type) (receptor)
chain: MSTQAAGNQTSSGATDSEDSYDSWYIDEPQGGQELQPEGLVPSCQPNVPPSLYHTCLAVLSILVLFLLAMLVRRRQLWPRCGHGRPGLPSPVDFLTGDRPRTVPAAVFMVLFSSLCLLLPTEDPLPFLSLASPPGRDGEAETSRGPWKILALLYYPALYYPLAACATVRHGAAHLLGSLLSWAHLGVQVWQRAECPESPKIYKYYSLLASLPLLLGLGFLSLWYPVQLVRSFGHGAATGSKGLQSSYSEEYLRTLLCQKKLKSSSHTCKRGFASQAWMYFRHSVYIPQQGFRLPLKLVLSVTLTGTAIYQVALLLLVGVVPTIQKVRAGITTDVSYLLAGFGIVLSEDRQEVVELVKHHLWALEVCYISALVLSCLLTFLMLVHSLVTHRTNLRALHRGGALDIGPLTQSPRPSRQAIFCWMSFTAYQTAFTCLGLLVQQILFFLGTLTLAFLVFMPMLHGRNLLLLHYLKSSWPFWLTLALAVTLQNAAAHWAFLDTHHGRPGLTNRRALYAATFLLFPVNVLVGTMVAAWRVLLSALYNAVHLGRMDLSLLPLRAATLDPGYHTYCNFLRMEASQSHPAATAFCALLLRTQRPKPRATPQDGLRLGEEEEGIQLLQTKDLVAKGAGPRARQGRARWGLAYTLLHNPALQAFRKTALPGARPNGAQP
notes: also called RBP receptor; WT
